Earlier results in publication PMC10530976.

Target: Kv1.2 (UniProt P16389)
Chain of UniProt P16389 (P16389 whole entry): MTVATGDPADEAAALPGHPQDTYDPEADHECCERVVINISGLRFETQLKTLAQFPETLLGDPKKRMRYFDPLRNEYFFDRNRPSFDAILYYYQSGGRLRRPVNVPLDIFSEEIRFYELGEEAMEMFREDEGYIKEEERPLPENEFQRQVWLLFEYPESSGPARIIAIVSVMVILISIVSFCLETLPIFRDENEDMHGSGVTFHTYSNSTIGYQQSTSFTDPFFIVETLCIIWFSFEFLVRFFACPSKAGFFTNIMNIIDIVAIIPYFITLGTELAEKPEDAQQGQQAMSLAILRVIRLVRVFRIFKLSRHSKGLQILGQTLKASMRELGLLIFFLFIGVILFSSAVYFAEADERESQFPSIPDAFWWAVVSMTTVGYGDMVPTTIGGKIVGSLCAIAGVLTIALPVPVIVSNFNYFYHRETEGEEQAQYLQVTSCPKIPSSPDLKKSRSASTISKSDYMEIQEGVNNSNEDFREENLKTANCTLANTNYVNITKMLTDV

Substance: OSK2 (from UniProt P83244)
- Kd: 5.97 nM
